Assay: soluble fraction after stress (log2 fold change); higher = more stays soluble; pooled small domains, quantitative proteomics
Details: stress: 75 degC
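Also: 20 min heating vs room temperature control held 20 min.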

Row | Sequence | soluble fraction (log2)
1 | HMNSGFEVFREVVNQGSFIGAANALGISAPAVSKQIKLLENRLGLLLLYRTTRNVTLTDIGKQLFDTLDNS | -1.98
2 | HMKGWPDREQAEKIWQQGIDYAIEHHTMSPQIVKEYIFHTQGIARSAALIAARLPDMDTEKAYVLGLLHD | -0.377
3 | HMSMSVLFSELDQKDAGVIVEKLKERKIPYELQSGGSAIMVPANVLHETRLQLAAEGLPQSS | -0.0383
4 | HMIEYILDYLANRGVYAASQGEQQQMEDGIARYLQENGLEDGNTGAYYQKYVSNHLQQISASDLKAYFLN | -0.946
5 | HMLPISGDDRDALDMAALILKQYDSLPILKEFANVVTKLQTVLDGVVSNSIEARRQMIQFEE | 0.0649
6 | HMGGREEAGTDIARLLGYINDIHGEELIAKLEYYQKMLGSENFAVLMSRLPDGQKKELREQNLYSEYV | -0.152
7 | HMNNNIFVYPNPSINYINIDSDEEIWKLEIIQMSGEKINILPFSKRIDISFLSKGLYILNFNNYYIKFIK | -0.136
8 | HMKKAMIISTKRGTPAAELDKIIREFEAKGLSVTMIRGTDYNVFGLVGDTTVIDEKQVRANPYVENVQRV | -0.157
9 | HMEVENAQLLARLTPQEHRVFERVVAGLSNREIGSEMDISIKTVEVHRARVMRKLEANSVAELVRFHIHN | -2.37
10 | HMDAQLRVPDLTPYNYSELKENTSLYEGFTIEVVEERSTGDYAAGTVLDQDPKADTLIQDGDSTVIKLVIA | 0.151
11 | HMKTVLDSLLRILDSKELDIVVLRHIVGLTLTEIAKEKDMKKGTVFWMYNRAVKKLRLESERMGL | -2.13
12 | HMRMYDVNEYSDEELHRILDLSSPTDSELEARILQMIQKYKYTNGGDNEKMAVFFENIYHHFFD | -1.65
13 | HMSLQDYYQVLGVFYNAGDKEIKRRWKELINQYHPDLAQAKGASPEEIENYTLKMAEINNAYEQIMKSRKA | -0.396
14 | HMLLPANLTKSQRNIAERVARGQSNLEIAADLNITERTVKAHLTSIYEKTKTGNRLNLALLINLG | -0.289
15 | HMDASFTYSLETHPAGVLVRVDGLEYETPFSILLPQGVHRLEVAGEERFFYLSETTHQFLEID | -2.9
16 | HMVSRAFEEETVKRAESGNQEAALFALELAIREIEHSYEKSKIIDYFVSKVRLFLDNGVSLERALGIH | 0.196
17 | HMRLREETRKVDKTGLIQVDGRHYRVPDEYSQKDVQILMDDNSIMVYRKGDFVIELDKETSVYMPH | 0.347
18 | HMHDYYDSIDAVTHDKSYESNLVFALKLGYTETQLQKALLKLGKKAREDQILEELIRIQKSSKA | -0.362
19 | HMKTRIQDLRKELGVTQSELADAVDVTRQTIISLEGGRYKASLVLAHKLAQFFHVTIEELFIFD | -2.32
20 | HMFIPGDSVRVHVKVVEGSNERIQMFEGVVIARQGSGVRENFTVRRISYGVGIERTFPVHSPRL | -0.226
21 | HMQDTQAEEGETLLDALRRIHPESSTGTLRRMLTQGRVQLDGDSVHAAKTVLSAGQRVEVVAR | -0.143
22 | HMSADDSDDRKGIDAWLTQLLANGSVKATEVYSAADAAGYSKDQAKRAKRRLAIEAVREAMDGPWFWRLD | -0.853
23 | HMLAQYPGQVFSKEQIYNQVWKEPYYGVEDNVMSLIRRIRKKIEPDPSRPIYILTVWGIGYKFNN | 0.0812
24 | HMLNPMILLTKGGENIRLDKFLSSHLSDLSRTQIQKMVKEGLVLVNGEPSKVGLKLDGSETIQYTLPK | -0.18
25 | HMVGKGASIILDRVNLPQYLEKFNEDGFDTIESLKNLNEIDLKEMGVKKGHIRVILNYLHEEY | -0.421
26 | HMQEKIREVANRIRELRESLEVSPEEMADHLKVTIGTYIEYERGEADIPASVLFGIAHRLNVDMAVLL | -1.36

Row | Sequence | soluble fraction (log2)
27 | HMDGYTVYTNWGSDTNVARSDQQIQSQIPQLSGATIVGVWTKPIATGGTSYKIRYRTNSGAFTEIDVDQ | -0.256
28 | HMIKIEDYTNKDYNKVEASLEVKGLVVNIEYKAVDDKAKYKGKEDLIIDQSVKKDATLVKGDTIILYLPK | -1.21
29 | HMRLATSELVYRIRALIRDQELQPGERLGSERALAQSLGISRSDLRMALAVLEASHEVIRKIGRAGGIVVS | -3.18
30 | HMQEEMIRGDIKLNTVMQTVHLAVGTETERNWQPVETTAKEFELLKLLMENPGVTLKKEYLFHMLI | -0.101
31 | HMESIPDELLEAFKQDPAFKQAFYALTAGRQRGYIIHFSQPKQSQTRIGRIEKYKEQIFNGIGLN | -1.39
32 | HMDVPTSSITEVKKSPMDVFAQARKAETGVYIFNREKIAGVMLTKEQYEALVEELNTLRDTL | -0.68
33 | HMEPLKLGDATGDGKINLQDVLEMQKHMAGILVLKGKFFTAADVNGNGKIELVDVLSVQKYLAGVTAEV | 0.11
34 | HMATSLTEQEKLIFGLLKKQSPIELSSLKEQAGLSNKKWDKAIKGLSTQQLAKVTKTENGLFVHLLQ | 0.00913
35 | HMDAYMIGHNIAKWRKEKGMTQDQLAEHLSVSGQAVSKWENGASLPDIAILPKLAEIFDVTMDQLFSR | 0.0534
36 | HMGQLIGKEEAKQIALSRAGVAEGDISRYESELDTDDGKTKYEISFHVGRVEYDIEINAVTGAVEKFEMDN | 0.587
37 | HMNQLSYTERRVLQVIEGGTTKTGEIEQALAAKMSRPTVHRALDALVGANRIHRLARGEYALGPAP | -0.501
38 | HMIMTIYEYIARNNPTGAKRVIESFGYVVTQPKKMGDNLRMLVAQEGEPALKAVVDLHPDKDLILEV | -2.69
39 | HMYPQLIGFKVIDEDKGEVGVVKEVSESMHQILLTVMKGKKEILIPLAEEFITKVNRHKKELFMVLPDG | -0.192
40 | HMERFVVISKDKYANLREEASTNSKVLAKVDNSYLIYNTNTYNENKDWYSVQIERDGNYYQVGYIHKSQL | -1.61
41 | HMKAPDSQYKPLTDFQTDASFQKLDAYLRNRYPAMLANAVVYDVLRTPDAISYRVNYQVDNKMITINAAVT | -1.66
42 | HMNEQVAVVSGSQVNVRSGPGTTSAVVGQVSKGDNLPVLNQSGDWYQIKLPGGNAGWVAGWLVSLRPTT | 0.0105
43 | HMNSYKGELLVDDKNIRLDLYLFNQFNFFSRTKIKNYILKGNVLVNNNKTSPSYILKGSEKIYYDFSVS | -3.21
44 | HMEYKNYYDSPVGRLELLSDGVSLTAVLFENQQGDGTREENTSLAIFKEATQWLDAYFKGDNPEITIPL | 0.0228
45 | HMYDASELNKALEEAKKLDLNNYTEESSEALKNAISKAEEALLSKDKETINSALEELNKAMDSL | 0.512
46 | HMLDSNILTLIKELKIRHHFTATQTHQLEKVIQQAHALGLDNSEIRSLANSSPSAKSLINDLNQKLEPLRL | -1.44
47 | HMDPTVSGQTGSVVREIRPGVPGEVELSVPLYGIRRWQAMADGILAEGTRVTVIQAEGVRLSVRPV | -1.24
48 | HMLETIDIFKVTGGEPFLSKDFLEILDLAIEKDLAKNITLMITTNASKFVKKILDKFIHFKRVEFTVS | 0.407
49 | HMAGNNTATKEIAELLIAKGADVNAMNLSPPGREIGGMTPLDMAILGNRNEIADLLRKHGGRTQKELKAE | 0.262
50 | HMKDYQGEISVVASGERIDVYLFNYFNLFSRTKIKNHIKNGNILVNENIISPSYILKQNDKIAFNLGAPY | -2.27
51 | HMKNHIEERRKARGMTQQQLASELGVSRQTIISLENGKYNPSILLAHSIARLFGERIEDIFILR | -2.45
52 | HMLGKNEAKEYKVAYGDIGKMPALIMGLVPLPKPPVVDERLRTLYVTATPEQHREIEAIMNRI | 0.236

Row | Sequence | soluble fraction (log2)
53 | HMPDFAENAVYGKQREDSLYAHAYKHFQLGDTTTVRAAEHLSAEIYPLGQHRPKFMFLNAVTR | 0.309
54 | HMDAVKKKVQSTNTLLDVLKQMLPQTSSNTLRKMLTNQRITVDGETIHRAKHTVEKDQTVEIHPKP | 0.215
55 | HMTAQASDIEKVLQVIETLGFRGHTLPGENRTAIGVTGNRGSIDPAHFENLPGVADAIRVTKPY | -0.0976
56 | HMTESFEFTMNDLVQNNLIMGSGAKERRIAVGEALGIGYTNAKQFLSRLNHYGITRKEFDDEIEKVNQN | -0.311
57 | HMFNLFPHLSVLRNITLAPQKVKGLNRSESNEIAMSLLERVGIPEQSDKFPSQLSGGQQQRVAIARALAM | -0.502
58 | HMGNIITQEAAVKLAQDRVPNATLVKIEYDFDDGRPVYEGELREGRWEYEFEIDAATGEFLKWEKD | 0.0823
59 | HMGVEKHLRITGTSTVSWKDAIVQAVAEASKTIDYLSNVKIIEQRARIDGKKLVEYFVDLDLSFVID | -0.23
60 | HMQKADFDYGDYVDLGLAMGRQSRQLREAVGIKLGIGYANSKRFYQRLQTFGISLAELKQAVEEAENDQQN | -1.12
61 | HMSVLLDDLSPREREILQLVVEGHSSTKIAGMLGLASATVDTYRSRLMAKLHIDNLPDLVRFAIRHGLIS | -2.46
62 | HMAMDYEGFKKSVYALTSIDLNAYKERQMKRRIDTLIAKNKYNGYEDYTAAIKKDKALFEEFVNYLTIN | -2.05
63 | HMAENMNAALRVSSLINQIGTVNAKAKDRIESARKAYDALSEAQKAYVANLTTLETAETSLSKL | 0.0786
64 | HMNFHLEHHIAELLYRSIRGELSDFERQELNQWRSDSPMHETLFMRLQDDEYIDEELGVFIK | -2.76
65 | HMSELPLTQKVAIVMVALGEEASGEVMKHLSDYEIEEITQAIAGLKNISVELMDQILEEYEQHLIAG | -0.515
66 | HMIQHFARKRRQLELAVQRLSGRMAETNGQVTADMQRLIQQVKALVAELSHVFSRAYLRRVLGGVALVIGS | -0.597
67 | HMAFDYETYQLTSREFSIIELVADGRSNREIAEALYLGEGTVRNYLSSILEKLELRDRTQLAVFFYQHL | -2.3
68 | HMILNDRSELLDVVKRVIAANPASVADYRKGKKKVLGFLVGQAMKETKGQADPRILNELFLQELGEN | 0.108
69 | HMKMLEINDNDSVGLKNLKTQYNHNQKVIENFQLEINKVINDGELPDKYLLDGMEKYQKLNMQIMSTIEKQ | 0.0503
70 | HMDAEVEHLFRIIAELKEKNVAIIYISHKMDEIFRISDDITVYRDGEYIATDRAENLNVDKVIQLMVGREV | -0.429
71 | HMDTAGSVAIVSKSVIENGFGEIKYKGTYFKAQSDVYIPKDQMVKVIGKGDEQGSFLIVEKLN | 0.0706
72 | HMETGELQQILEDVFSKNIGIVQDKREAAFSILMGMIMAKSRGRADGALVSTLLKKKLTEFLATSDQVR | -0.0719
73 | HMEHLTATERHLVAYLEAHLGQVPSLSITKLSQEANVSTASIVRTMKKLGYDGFTAFKHAIKQQLR | -2.67
74 | HMPLTKKLETLFSLFPKYEKELKKKGVTRIHVWANYKEEYPDGIGRSQFIHYYSFWKKQVSP | -0.154
75 | HMPKAPHETLSRREMEVLLLLSEGVTLTRIGDTIHVSVKTVSTYRARILQKLDLQSNAELTRYVLQHKL | -5.8
76 | HMEDSAKRHQIMDGARRVFMDLGFDGASMNEIARAAGVSKGTLYVYFTDKNRLFEAIVEQESL | -1.27
77 | HMLIPTISVTKEGQLRFENIPVSWEELGTRLRDVSDLDKIKIYADAESDALTISEIMKTAANVGIVQFVLV | -1.03

From the domain aggregation screens of Martell et al. (2025)
